# Data as given in article doi:10.1101/2025.05.11.653314.
# Molecular target: U. parvum Smc (Ureaplasma parvum)
# Test: cross-linking
substance,measurement,value
U. parvum Smc (enzyme),stoichiometry N,2
